Numbering of substitutions follows the chain as printed. In names and notes the source's numbering stands.
B1: Pin1-GST (natural protein, S. pombe, UniProt O74448 1-175, looked up)
chain: MSNTGLPKPWIVKISRSRNRPYFFNTETHESLWEPPAATDMAALKKFIANELQESVTPTEASNSPKIRASHLLVKHRESRRPSSWKEEHITRSKEEARKLAEHYEQLLKSGSVSMHDLAMKESDCSSARRGGELGEFGRDEMQKPFEDAAFALKPGEISGVVETSSGFHIIQRHA
B2: Pin1 (S79E)-GST (natural protein, S. pombe, UniProt O74448 1-175, looked up)
chain: B1 chain with S79E
B3: GST-Rpb1-CTD (domain or fragment)
chain: not shown

Tests used:
Assay in all cases: pull-down
[1] = biological target: T1, Ssu72-His (S. pombe, UniProt O42868 1-197)
T1 sequence (looked up): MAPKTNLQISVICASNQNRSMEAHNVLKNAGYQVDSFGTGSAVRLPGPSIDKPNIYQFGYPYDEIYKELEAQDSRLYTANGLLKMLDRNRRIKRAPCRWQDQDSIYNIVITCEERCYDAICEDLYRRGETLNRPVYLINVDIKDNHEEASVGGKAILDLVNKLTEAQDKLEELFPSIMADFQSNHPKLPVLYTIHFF

[2] = biological target: phosphorylated CTD-GFP (S. pombe, UniProt P36594 1549-1751, phosphorylated (sites not told for this preparation))
[3] = biological target: T2, Sty1 (K49R)-His (S. pombe, UniProt Q09892 1-349, K49R)
T2 sequence (looked up): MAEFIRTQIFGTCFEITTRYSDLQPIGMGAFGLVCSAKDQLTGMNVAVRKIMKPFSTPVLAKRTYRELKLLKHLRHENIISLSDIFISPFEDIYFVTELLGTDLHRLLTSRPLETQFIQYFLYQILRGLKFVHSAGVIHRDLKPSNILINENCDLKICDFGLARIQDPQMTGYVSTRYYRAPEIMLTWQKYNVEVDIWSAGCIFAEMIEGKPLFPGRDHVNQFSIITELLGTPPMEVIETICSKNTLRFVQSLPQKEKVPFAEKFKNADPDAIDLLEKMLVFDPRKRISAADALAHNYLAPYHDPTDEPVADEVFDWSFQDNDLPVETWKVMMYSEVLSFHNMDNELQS

[4] = biological target: T3, Sty1-His (S. pombe, UniProt Q09892 1-349)
T3 sequence (looked up): T2 sequence (looked up) with R49K

phosphorylated CTD-GFP, sequence (P36594 1549-1751): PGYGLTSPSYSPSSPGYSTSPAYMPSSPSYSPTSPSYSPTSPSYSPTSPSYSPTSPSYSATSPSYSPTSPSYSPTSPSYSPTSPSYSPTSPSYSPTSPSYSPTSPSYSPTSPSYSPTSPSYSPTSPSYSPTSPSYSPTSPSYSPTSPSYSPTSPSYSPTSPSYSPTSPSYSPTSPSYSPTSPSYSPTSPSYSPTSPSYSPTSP

Binder | binding result [1] | binding result [2] | binding result [3] | binding result [4]
B1 | binds | binds | – | –
B2 | – | binds | – | –
B3 | – | – | binds | binds

— PMC7826279 (Nucleic Acids Research, 2021)
